Reference: patent US20230002496A1 (STAIDSON BEIJING BIOPHARMACEUTICALS, published 2023)

T1: human GM-CSFRα, full length on cells (human, UniProt P15509 23-400)
T1 sequence: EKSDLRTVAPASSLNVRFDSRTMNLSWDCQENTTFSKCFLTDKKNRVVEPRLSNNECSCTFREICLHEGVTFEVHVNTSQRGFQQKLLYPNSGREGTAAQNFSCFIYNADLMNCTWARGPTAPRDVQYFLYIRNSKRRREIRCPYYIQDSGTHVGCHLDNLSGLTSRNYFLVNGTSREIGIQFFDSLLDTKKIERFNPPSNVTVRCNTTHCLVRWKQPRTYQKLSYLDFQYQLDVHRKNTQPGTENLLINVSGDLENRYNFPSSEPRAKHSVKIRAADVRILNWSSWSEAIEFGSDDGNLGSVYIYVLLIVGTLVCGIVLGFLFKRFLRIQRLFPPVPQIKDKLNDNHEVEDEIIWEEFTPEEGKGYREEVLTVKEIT

B1: E35-scFv LS31L (scFv, V domains shown)
VH: QMQLVQSGAEVKKPGASVKVSCKVSGYTLTELSIHWVRQAPGKGLEWMGGFDPEDGETIYAQKFQGRVTMTGDTSTDTAYLELSSLRSEDTALYYCATGRYTSLATTYGFDYWGQGTLVTVSS
VL: EIVMTQSPATLSLSPGERATLSCRASQSVSLYLAWYQQKPGQAPRLLIYGASSRATGIPDRFSGSGSGTDFTLTISRLEPEDFAVYYCQQYDNWPYTFGQGTKLEIK
B2: E35-scFv LS28L (scFv, V domains shown)
VH: QMQLVQSGAEVKKPGASVKVSCKVSGYTLTELSIHWVRQAPGKGLEWMGGFDPEDGETIYAQKFQGRVTMTGDTSTDTAYLELSSLRSEDTALYYCATGRYTSLATTYGFDYWGQGTLVTVSS
VL: EIVMTQSPATLSLSPGERATLSCRASQLVSSYLAWYQQKPGQAPRLLIYGASSRATGIPDRFSGSGSGTDFTLTISRLEPEDFAVYYCQQYDNWPYTFGQGTKLEIK
B3: E35-scFv (scFv, V domains shown)
VH: QMQLVQSGAEVKKPGASVKVSCKVSGYTLTELSIHWVRQAPGKGLEWMGGFDPEDGETIYAQKFQGRVTMTGDTSTDTAYLELSSLRSEDTALYYCATGRYTSLATTYGFDYWGQGTLVTVSS
VL: EIVMTQSPATLSLSPGERATLSCRASQSVSSYLAWYQQKPGQAPRLLIYGASSRATGIPDRFSGSGSGTDFTLTISRLEPEDFAVYYCQQYDNWPYTFGQGTKLEIK
B4: E35-scFv LS31G (scFv, V domains shown)
VH: QMQLVQSGAEVKKPGASVKVSCKVSGYTLTELSIHWVRQAPGKGLEWMGGFDPEDGETIYAQKFQGRVTMTGDTSTDTAYLELSSLRSEDTALYYCATGRYTSLATTYGFDYWGQGTLVTVSS
VL: EIVMTQSPATLSLSPGERATLSCRASQSVSGYLAWYQQKPGQAPRLLIYGASSRATGIPDRFSGSGSGTDFTLTISRLEPEDFAVYYCQQYDNWPYTFGQGTKLEIK
B5: E35-scFv LS28E (scFv, V domains shown)
VH: QMQLVQSGAEVKKPGASVKVSCKVSGYTLTELSIHWVRQAPGKGLEWMGGFDPEDGETIYAQKFQGRVTMTGDTSTDTAYLELSSLRSEDTALYYCATGRYTSLATTYGFDYWGQGTLVTVSS
VL: EIVMTQSPATLSLSPGERATLSCRASQEVSSYLAWYQQKPGQAPRLLIYGASSRATGIPDRFSGSGSGTDFTLTISRLEPEDFAVYYCQQYDNWPYTFGQGTKLEIK
B6: E35-scFv LS28H (scFv, V domains shown)
VH: QMQLVQSGAEVKKPGASVKVSCKVSGYTLTELSIHWVRQAPGKGLEWMGGFDPEDGETIYAQKFQGRVTMTGDTSTDTAYLELSSLRSEDTALYYCATGRYTSLATTYGFDYWGQGTLVTVSS
VL: EIVMTQSPATLSLSPGERATLSCRASQHVSSYLAWYQQKPGQAPRLLIYGASSRATGIPDRFSGSGSGTDFTLTISRLEPEDFAVYYCQQYDNWPYTFGQGTKLEIK
B7: E35-scFv LS28F (scFv, V domains shown)
VH: QMQLVQSGAEVKKPGASVKVSCKVSGYTLTELSIHWVRQAPGKGLEWMGGFDPEDGETIYAQKFQGRVTMTGDTSTDTAYLELSSLRSEDTALYYCATGRYTSLATTYGFDYWGQGTLVTVSS
VL: EIVMTQSPATLSLSPGERATLSCRASQFVSSYLAWYQQKPGQAPRLLIYGASSRATGIPDRFSGSGSGTDFTLTISRLEPEDFAVYYCQQYDNWPYTFGQGTKLEIK
B8: E35-scFv LS28Q (scFv, V domains shown)
VH: QMQLVQSGAEVKKPGASVKVSCKVSGYTLTELSIHWVRQAPGKGLEWMGGFDPEDGETIYAQKFQGRVTMTGDTSTDTAYLELSSLRSEDTALYYCATGRYTSLATTYGFDYWGQGTLVTVSS
VL: EIVMTQSPATLSLSPGERATLSCRASQQVSSYLAWYQQKPGQAPRLLIYGASSRATGIPDRFSGSGSGTDFTLTISRLEPEDFAVYYCQQYDNWPYTFGQGTKLEIK
B9: E35-scFv LS28T (scFv, V domains shown)
VH: QMQLVQSGAEVKKPGASVKVSCKVSGYTLTELSIHWVRQAPGKGLEWMGGFDPEDGETIYAQKFQGRVTMTGDTSTDTAYLELSSLRSEDTALYYCATGRYTSLATTYGFDYWGQGTLVTVSS
VL: EIVMTQSPATLSLSPGERATLSCRASQTVSSYLAWYQQKPGQAPRLLIYGASSRATGIPDRFSGSGSGTDFTLTISRLEPEDFAVYYCQQYDNWPYTFGQGTKLEIK
B10: E35-scFv LS28R (scFv, V domains shown)
VH: QMQLVQSGAEVKKPGASVKVSCKVSGYTLTELSIHWVRQAPGKGLEWMGGFDPEDGETIYAQKFQGRVTMTGDTSTDTAYLELSSLRSEDTALYYCATGRYTSLATTYGFDYWGQGTLVTVSS
VL: EIVMTQSPATLSLSPGERATLSCRASQRVSSYLAWYQQKPGQAPRLLIYGASSRATGIPDRFSGSGSGTDFTLTISRLEPEDFAVYYCQQYDNWPYTFGQGTKLEIK
B11: E35-scFv LS28I (scFv, V domains shown)
VH: QMQLVQSGAEVKKPGASVKVSCKVSGYTLTELSIHWVRQAPGKGLEWMGGFDPEDGETIYAQKFQGRVTMTGDTSTDTAYLELSSLRSEDTALYYCATGRYTSLATTYGFDYWGQGTLVTVSS
VL: EIVMTQSPATLSLSPGERATLSCRASQIVSSYLAWYQQKPGQAPRLLIYGASSRATGIPDRFSGSGSGTDFTLTISRLEPEDFAVYYCQQYDNWPYTFGQGTKLEIK
B12: E35-scFv LS31W (scFv, V domains shown)
VH: QMQLVQSGAEVKKPGASVKVSCKVSGYTLTELSIHWVRQAPGKGLEWMGGFDPEDGETIYAQKFQGRVTMTGDTSTDTAYLELSSLRSEDTALYYCATGRYTSLATTYGFDYWGQGTLVTVSS
VL: EIVMTQSPATLSLSPGERATLSCRASQSVSWYLAWYQQKPGQAPRLLIYGASSRATGIPDRFSGSGSGTDFTLTISRLEPEDFAVYYCQQYDNWPYTFGQGTKLEIK
B13: E35-scFv LS31E (scFv, V domains shown)
VH: QMQLVQSGAEVKKPGASVKVSCKVSGYTLTELSIHWVRQAPGKGLEWMGGFDPEDGETIYAQKFQGRVTMTGDTSTDTAYLELSSLRSEDTALYYCATGRYTSLATTYGFDYWGQGTLVTVSS
VL: EIVMTQSPATLSLSPGERATLSCRASQSVSEYLAWYQQKPGQAPRLLIYGASSRATGIPDRFSGSGSGTDFTLTISRLEPEDFAVYYCQQYDNWPYTFGQGTKLEIK
B14: E35-scFv LS28P (scFv, V domains shown)
VH: QMQLVQSGAEVKKPGASVKVSCKVSGYTLTELSIHWVRQAPGKGLEWMGGFDPEDGETIYAQKFQGRVTMTGDTSTDTAYLELSSLRSEDTALYYCATGRYTSLATTYGFDYWGQGTLVTVSS
VL: EIVMTQSPATLSLSPGERATLSCRASQPVSSYLAWYQQKPGQAPRLLIYGASSRATGIPDRFSGSGSGTDFTLTISRLEPEDFAVYYCQQYDNWPYTFGQGTKLEIK
B15: E35-scFv LS31I (scFv, V domains shown)
VH: QMQLVQSGAEVKKPGASVKVSCKVSGYTLTELSIHWVRQAPGKGLEWMGGFDPEDGETIYAQKFQGRVTMTGDTSTDTAYLELSSLRSEDTALYYCATGRYTSLATTYGFDYWGQGTLVTVSS
VL: EIVMTQSPATLSLSPGERATLSCRASQSVSIYLAWYQQKPGQAPRLLIYGASSRATGIPDRFSGSGSGTDFTLTISRLEPEDFAVYYCQQYDNWPYTFGQGTKLEIK
B16: E35-scFv LS31D (scFv, V domains shown)
VH: QMQLVQSGAEVKKPGASVKVSCKVSGYTLTELSIHWVRQAPGKGLEWMGGFDPEDGETIYAQKFQGRVTMTGDTSTDTAYLELSSLRSEDTALYYCATGRYTSLATTYGFDYWGQGTLVTVSS
VL: EIVMTQSPATLSLSPGERATLSCRASQSVSDYLAWYQQKPGQAPRLLIYGASSRATGIPDRFSGSGSGTDFTLTISRLEPEDFAVYYCQQYDNWPYTFGQGTKLEIK
B17: E35-scFv LS28V (scFv, V domains shown)
VH: QMQLVQSGAEVKKPGASVKVSCKVSGYTLTELSIHWVRQAPGKGLEWMGGFDPEDGETIYAQKFQGRVTMTGDTSTDTAYLELSSLRSEDTALYYCATGRYTSLATTYGFDYWGQGTLVTVSS
VL: EIVMTQSPATLSLSPGERATLSCRASQVVSSYLAWYQQKPGQAPRLLIYGASSRATGIPDRFSGSGSGTDFTLTISRLEPEDFAVYYCQQYDNWPYTFGQGTKLEIK
B18: E35-scFv LS28W (scFv, V domains shown)
VH: QMQLVQSGAEVKKPGASVKVSCKVSGYTLTELSIHWVRQAPGKGLEWMGGFDPEDGETIYAQKFQGRVTMTGDTSTDTAYLELSSLRSEDTALYYCATGRYTSLATTYGFDYWGQGTLVTVSS
VL: EIVMTQSPATLSLSPGERATLSCRASQWVSSYLAWYQQKPGQAPRLLIYGASSRATGIPDRFSGSGSGTDFTLTISRLEPEDFAVYYCQQYDNWPYTFGQGTKLEIK
B19: E35-scFv LS28K (scFv, V domains shown)
VH: QMQLVQSGAEVKKPGASVKVSCKVSGYTLTELSIHWVRQAPGKGLEWMGGFDPEDGETIYAQKFQGRVTMTGDTSTDTAYLELSSLRSEDTALYYCATGRYTSLATTYGFDYWGQGTLVTVSS
VL: EIVMTQSPATLSLSPGERATLSCRASQKVSSYLAWYQQKPGQAPRLLIYGASSRATGIPDRFSGSGSGTDFTLTISRLEPEDFAVYYCQQYDNWPYTFGQGTKLEIK
B20: E35-scFv LS28A (scFv, V domains shown)
VH: QMQLVQSGAEVKKPGASVKVSCKVSGYTLTELSIHWVRQAPGKGLEWMGGFDPEDGETIYAQKFQGRVTMTGDTSTDTAYLELSSLRSEDTALYYCATGRYTSLATTYGFDYWGQGTLVTVSS
VL: EIVMTQSPATLSLSPGERATLSCRASQAVSSYLAWYQQKPGQAPRLLIYGASSRATGIPDRFSGSGSGTDFTLTISRLEPEDFAVYYCQQYDNWPYTFGQGTKLEIK

molecular target: T1, human GM-CSFRα, full length on cells; experiment: cell-based or functional assay

Compared with B1, B2 is 3.5-fold lower in “IC50, TF-1 cell proliferation” value: 0.235 mg/L for the first, 0.067 mg/L for the second.

First: B3
Second: B4
The “IC50, TF-1 cell proliferation” value of the first is 2.3-fold lower: 0.12 mg/L for the first, 0.279 mg/L for the second.

Compared with B5, B6 is 1.9-fold lower in “IC50, TF-1 cell proliferation” value: 0.111 mg/L for the first, 0.058 mg/L for the second.

Going from B7 to B8, the “IC50, TF-1 cell proliferation” value rises from 0.1 mg/L to 0.154 mg/L (1.5-fold).

B9 and B10 are within 1.5-fold of each other in “IC50, TF-1 cell proliferation” value: 0.088 mg/L for the first, 0.077 mg/L for the second.

Going from B11 to B12, the “IC50, TF-1 cell proliferation” value rises from 0.091 mg/L to 0.649 mg/L (7.1-fold).

Compared with B13, B14 is 9.3-fold lower in “IC50, TF-1 cell proliferation” value: 0.832 mg/L for the first, 0.089 mg/L for the second.

Going from B15 to B16, the “IC50, TF-1 cell proliferation” value rises from 0.681 mg/L to 1.34 mg/L (2-fold).

First: B17
Second: B18
The “IC50, TF-1 cell proliferation” value of the first is 1.7-fold higher: 0.104 mg/L for the first, 0.06 mg/L for the second.

B19 and B20 are within 1.5-fold of each other in “IC50, TF-1 cell proliferation” value: 0.082 mg/L for the first, 0.116 mg/L for the second.
